# Reference: PMC5787804 (2017)
# Where no end group is shown, it is not given here. Side-chain parts run from the residue outwards. silicon chip = not defined here
# Columns and labels:
# [1] = molecular target: Orai1-L2 (aa 136–186, mutation C143G) (human, UniProt Q96D31 136-186, C143G, conjugated to amino-functionalized AFM cantilever tips via a flexible NHS-PEG18-acetal cross-linker); test: AFM single-molecule force spectroscopy
# [2] = molecular target: Orai3-L2 (aa 111–161, mutation C118G) (human, UniProt Q9BRQ5 111-161, C118G, conjugated to amino-functionalized AFM cantilever tips via a flexible NHS-PEG18-acetal cross-linker); test: AFM single-molecule force spectroscopy
# Chain of Orai1-L2 (aa 136–186, mutation C143G) (Q96D31 136-186 C143G): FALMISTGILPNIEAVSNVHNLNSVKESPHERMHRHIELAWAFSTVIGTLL
Binder,koff [1] [s⁻¹],koff [2] [s⁻¹]
SMQALSWRKLYLSRAKLKASSRC (added C-terminal cysteine for site-specific coupling; immobilized on silicon chips via NHS-PEG27-maleimide linkers) [Orai1-NT 70–91],1.9,0.23
LYLSRAKLKASSRC([NHS‑PEG27‑maleimide-silicon chip]) (reading uncertain) [Orai1-NT 79–91],0.13,0.09
